Tests used:
[1] = target: T1, native mouse MET on living cells (mouse, UniProt P16056 25-1379); assay: flow cytometry, MLP29 cells
T1 construct: whole, on cells; also called Mouse cells (MLP29); mouse epithelial cells expressing MET
Method: (§1) We also analysed whether chimeric anti-MET antibodies bound to native human and mouse MET in living cells. […] Antibody binding to cells was analysed by flow cytometry using phycoerythrin-conjugated anti-human IgG1 antibodies (eBioscience) and a CyAn ADP analyser (Beckman Coulter). As a positive control for human MET binding, we used a commercial mouse anti-human MET antibody (R&D Systems) and phycoerythrin-conjugated anti-mouse IgG1 antibodies (eBioscience).
(§2) As a positive control for mouse MET binding we used a commercial goat anti-mouse MET antibody (R&D Systems) and phycoerythrin-conjugated anti-goat IgG1 antibodies (eBioscience). […] Consistent with the data obtained in ELISA, maximal binding (EMAX) varied depending on antibody, but was similar in human and mouse cells.

human MET ECD = target: T2, human MET ECD (human, UniProt P08581 25-932); assay: ELISA, MET ECD in solid phase, mAb 0-20 nM
T2 construct: range 1-932; recombinant ECD made by the applicants; the stated range begins at residue 1, so it includes the signal peptide of the entry; also called hMET; hMET ECD
Method: (§3) Production (by transient transfection of mammalian cells) and purification (by protein A affinity chromatography) of the resulting chimeric llama-human IgG1 molecules was outsourced to U-protein Express. Binding of chimeric mAbs to MET was determined by ELISA using hMET or mMET ECD in solid phase and increasing concentrations of antibodies (0-20 nM) in solution. […] Binding capacity (EMAX) varied from antibody to antibody, possibly due to partial epitope exposure in the immobilized antigen, but was similar in the human and mouse setting.

mouse MET ECD = target: T3, mouse MET ECD (mouse, UniProt P16056 25-931); assay: ELISA, MET ECD in solid phase, mAb 0-20 nM
T3 construct: range 1-931; recombinant ECD made by the applicants; the stated range begins at residue 1; also called mMET; mMET ECD
Method: as §3

[2] = target: T4, native human MET on living cells (human, UniProt P08581 25-1390); assay: flow cytometry, A549 cells
T4 construct: whole, on cells; also called Human cells (A549); HPAF-II
Method: as §1, §2

[3] = target: T5, human MET-Fc (R&D Systems) (human, UniProt P08581 25-932); assay: competition ELISA, hMET-Fc in solid phase, competitor 0.3 nM biotinylated hHGF
T5 construct: extracellular domain; bought chimeric protein; also called hMET; not shown: Fc portion of human IgG1
Method: (§4) To investigate along this line, we tested the competition between mAbs and HGF by ELISA. Recombinant human and mouse HGF (R&D Systems) were biotinylated at the N-terminus using NHS-LC-biotin (Thermo Scientific). MET-Fc protein, either human or mouse (R&D Systems), was immobilized in solid phase and then exposed to 0.3 nM biotinylated HGF, either human or mouse, in the presence of increasing concentrations of antibodies (0-120 nM).
(§5) A MET-Fc chimeric protein (either human or mouse) was immobilized in solid phase and exposed to a fixed concentration of biotinylated HGF (either human or mouse), in the presence of increasing concentrations of antibodies. […] Antibody-HGF competition is expressed as IC₅₀ (the concentration that achieves 50% competition) and IMAX (the maximum % competition reached at saturation).

[4] = target: T1, native mouse MET on living cells; assay: cell-based or functional assay
[5] = target: T4, native human MET on living cells; assay: cell-based or functional assay
[6] = target: T6, mouse MET-Fc (R&D Systems) (mouse, UniProt P16056 25-929, limits assumed); assay: competition ELISA, mMET-Fc in solid phase, competitor 0.3 nM biotinylated mHGF
T6 construct: bought chimeric protein; also called mMET; not shown: Fc part
Method: as §4, §5

[7] = target: T1, native mouse MET on living cells; assay: cell-based or functional assay; remark: listed apart in the source
[8] = target: T4, native human MET on living cells; assay: cell-based or functional assay; remark: listed apart in the source
[9] = target: T1, native mouse MET on living cells; assay: cell-based or functional assay; remark: listed apart in the source
[10] = target: T4, native human MET on living cells; assay: cell-based or functional assay; remark: listed apart in the source
[11] = target: T1, native mouse MET on living cells; assay: cell-based or functional assay; remark: listed apart in the source
[12] = target: T4, native human MET on living cells; assay: cell-based or functional assay; remark: listed apart in the source

T4 sequence (P08581 25-1390): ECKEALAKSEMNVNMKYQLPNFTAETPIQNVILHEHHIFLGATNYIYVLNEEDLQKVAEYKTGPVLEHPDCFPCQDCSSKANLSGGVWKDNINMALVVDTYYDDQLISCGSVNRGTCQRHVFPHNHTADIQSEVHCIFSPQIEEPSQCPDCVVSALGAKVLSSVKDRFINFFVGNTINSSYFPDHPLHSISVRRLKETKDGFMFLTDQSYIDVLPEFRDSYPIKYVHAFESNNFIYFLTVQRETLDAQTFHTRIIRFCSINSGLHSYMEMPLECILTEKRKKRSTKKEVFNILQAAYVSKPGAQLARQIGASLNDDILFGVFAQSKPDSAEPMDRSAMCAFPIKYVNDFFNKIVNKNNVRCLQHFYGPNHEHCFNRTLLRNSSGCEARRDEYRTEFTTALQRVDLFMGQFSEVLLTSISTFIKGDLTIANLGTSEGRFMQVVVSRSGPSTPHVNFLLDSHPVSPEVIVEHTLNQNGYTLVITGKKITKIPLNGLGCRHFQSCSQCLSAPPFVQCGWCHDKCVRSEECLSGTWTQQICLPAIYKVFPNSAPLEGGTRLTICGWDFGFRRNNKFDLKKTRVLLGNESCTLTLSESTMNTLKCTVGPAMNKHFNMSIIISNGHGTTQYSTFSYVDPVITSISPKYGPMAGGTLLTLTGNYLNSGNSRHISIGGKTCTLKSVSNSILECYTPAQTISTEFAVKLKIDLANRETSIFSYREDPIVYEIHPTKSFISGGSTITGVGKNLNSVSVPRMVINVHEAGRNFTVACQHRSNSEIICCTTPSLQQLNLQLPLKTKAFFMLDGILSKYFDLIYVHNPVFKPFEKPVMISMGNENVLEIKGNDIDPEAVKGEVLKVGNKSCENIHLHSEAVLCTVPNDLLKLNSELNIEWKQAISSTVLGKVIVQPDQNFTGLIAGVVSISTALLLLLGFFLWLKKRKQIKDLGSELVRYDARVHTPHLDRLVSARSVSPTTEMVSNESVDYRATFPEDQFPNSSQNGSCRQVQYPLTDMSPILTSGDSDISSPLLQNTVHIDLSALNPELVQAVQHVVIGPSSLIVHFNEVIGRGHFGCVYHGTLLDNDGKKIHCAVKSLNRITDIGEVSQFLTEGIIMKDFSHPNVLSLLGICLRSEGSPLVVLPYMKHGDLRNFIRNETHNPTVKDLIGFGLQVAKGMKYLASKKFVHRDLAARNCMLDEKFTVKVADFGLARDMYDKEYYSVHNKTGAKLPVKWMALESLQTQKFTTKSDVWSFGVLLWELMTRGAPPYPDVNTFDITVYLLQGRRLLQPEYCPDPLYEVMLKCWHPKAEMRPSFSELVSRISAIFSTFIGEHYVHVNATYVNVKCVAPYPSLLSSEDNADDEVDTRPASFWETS
T2 sequence (P08581 25-932 limits assumed, form in doubt): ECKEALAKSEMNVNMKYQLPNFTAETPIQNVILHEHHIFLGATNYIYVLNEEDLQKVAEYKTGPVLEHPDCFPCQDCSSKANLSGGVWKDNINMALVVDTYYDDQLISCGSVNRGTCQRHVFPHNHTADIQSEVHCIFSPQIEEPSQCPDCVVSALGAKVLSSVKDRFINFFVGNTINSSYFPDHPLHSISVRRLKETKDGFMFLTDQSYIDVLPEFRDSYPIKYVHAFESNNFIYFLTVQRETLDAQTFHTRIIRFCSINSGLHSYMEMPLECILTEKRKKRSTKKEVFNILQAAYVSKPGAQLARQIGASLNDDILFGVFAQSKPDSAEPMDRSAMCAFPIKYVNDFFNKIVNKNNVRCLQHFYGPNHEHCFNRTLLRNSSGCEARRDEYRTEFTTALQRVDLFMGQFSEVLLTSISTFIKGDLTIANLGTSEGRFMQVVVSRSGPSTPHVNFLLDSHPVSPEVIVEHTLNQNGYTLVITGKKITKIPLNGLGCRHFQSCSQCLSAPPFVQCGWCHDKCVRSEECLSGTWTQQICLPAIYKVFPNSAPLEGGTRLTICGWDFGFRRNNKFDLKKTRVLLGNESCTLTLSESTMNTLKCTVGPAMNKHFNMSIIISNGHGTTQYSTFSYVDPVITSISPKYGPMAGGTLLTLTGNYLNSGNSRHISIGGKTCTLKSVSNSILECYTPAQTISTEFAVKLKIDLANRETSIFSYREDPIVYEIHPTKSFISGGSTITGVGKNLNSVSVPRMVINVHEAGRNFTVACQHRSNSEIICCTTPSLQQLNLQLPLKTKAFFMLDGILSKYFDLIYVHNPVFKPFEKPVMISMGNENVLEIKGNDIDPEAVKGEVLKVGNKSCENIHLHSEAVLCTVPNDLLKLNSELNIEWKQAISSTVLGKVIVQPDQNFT
T5 sequence (P08581 25-932): as the sequence (P08581 25-932 limits assumed, form in doubt) above

B1: 76G7 chimeric llama-human IgG1 mAb (antibody, V domains shown)
VH: QVQLVESGGNLVQPGGSLRLSCAASGFTFSNYYMSWVRQAPGKGLEWVSDIYSDGSTTWYSDSVKGRFTISRDNAKNTLSLQMNSLKSEDTAVYYCARVKIYPGGYDAWGQGTQVTVSS
VL: QAGLTQPPSVSGSPGKTVTISCAGNSSDVGYGNYVSWYQQFPGMAPKLLIYLVNKRASGITDRFSGSKSGNTASLTISGLQSEDEADYYCASYTGSNNIVFGGGTHLTVL
notes: llama VH on human IgG1 CH1-CH2-CH3, llama VL on human lambda CL
For B1, the EC50 [1] was 2.37 nM, the EMAX [1] was 115 % relative to control and the EC50 (human MET ECD) was 0.128 nM. For the same binder, the “EMAX (OD450)” value (human MET ECD) was 2.62 AU, the EC50 (mouse MET ECD) was 0.103 nM and the “EMAX (OD450)” value (mouse MET ECD) was 2.78 AU. For the same binder, the EC50 [2] was 2.3 nM, the EMAX [2] was 121 % relative to control and the IC50 [3] was 1.47 nM. For the same binder, the IMAX [3] was 69.4%, the “branches per spheroid, MLP29 cells, 0.5 nM” value [4] was 14.7 branches and the “branches per spheroid, MLP29 cells, 2.5 nM” value [4] was 18.7 branches. For the same binder, the “branches per spheroid, MLP29 cells, 12.5 nM” value [4] was 24.7 branches, the “branches per spheroid, LOC cells, 0.5 nM” value [5] was 6.7 branches and the “branches per spheroid, LOC cells, 2.5 nM” value [5] was 13.3 branches. The “branches per spheroid, LOC cells, 12.5 nM” value [5] was 16.3 branches, the IC50 [6] was 1.56 nM and the IMAX [6] was 62.5%. For the same binder, the “phospho-MET ELISA EC50, MLP29 cells” value [7] was 1.19 nM, the “phospho-MET ELISA EMAX (% HGF activity), MLP29 cells” value [7] was 71.5% and the “phospho-MET ELISA EC50, A549 cells” value [8] was 1.86 nM. For the same binder, the “phospho-MET ELISA EMAX (% HGF activity), A549 cells” value [8] was 62.3%, the “protection from staurosporine, viability EC50, MLP29 cells” value [9] was 30.1 nM and the “protection from staurosporine, viability EMAX, MLP29 cells” value [9] was 50.2%. The “protection from staurosporine, viability EC50, MCF10A cells” value [10] was 25.4 nM, the “protection from staurosporine, viability EMAX, MCF10A cells” value [10] was 51.9% and the “scatter score 0-4, MLP29, 0.001 nM” value [11] was 0 score. For the same binder, the “scatter score 0-4, MLP29, 0.004 nM” value [11] was 0 score, the “scatter score 0-4, MLP29, 0.012 nM” value [11] was 0 score and the “scatter score 0-4, MLP29, 0.037 nM” value [11] was 0 score. The “scatter score 0-4, MLP29, 0.111 nM” value [11] was 0 score, the “scatter score 0-4, MLP29, 0.333 nM” value [11] was 0 score and the “scatter score 0-4, MLP29, 1.000 nM” value [11] was 1 score. The “scatter score 0-4, MLP29, 3.000 nM” value [11] was 2 score, the “scatter score 0-4, MLP29, 9.000 nM” value [11] was 3 score and the “scatter score 0-4, HPAF-II, 0.001 nM” value [12] was 0 score. The “scatter score 0-4, HPAF-II, 0.004 nM” value [12] was 0 score, the “scatter score 0-4, HPAF-II, 0.012 nM” value [12] was 0 score and the “scatter score 0-4, HPAF-II, 0.037 nM” value [12] was 0 score. For the same binder, the “scatter score 0-4, HPAF-II, 0.111 nM” value [12] was 0 score, the “scatter score 0-4, HPAF-II, 0.333 nM” value [12] was 0 score and the “scatter score 0-4, HPAF-II, 1.000 nM” value [12] was 1 score. The “scatter score 0-4, HPAF-II, 3.000 nM” value [12] was 2 score and the “scatter score 0-4, HPAF-II, 9.000 nM” value [12] was 3 score.

B2: recombinant mouse HGF (R&D Systems) (ligand, UniProt Q08048 33-728, looked up)
chain: QKKRRNTLHEFKKSAKTTLTKEDPLLKIKTKKVNSADECANRCIRNRGFTFTCKAFVFDKSRKRCYWYPFNSMSSGVKKGFGHEFDLYENKDYIRNCIIGKGGSYKGTVSITKSGIKCQPWNSMIPHEHSFLPSSYRGKDLQENYCRNPRGEEGGPWCFTSNPEVRYEVCDIPQCSEVECMTCNGESYRGPMDHTESGKTCQRWDQQTPHRHKFLPERYPDKGFDDNYCRNPDGKPRPWCYTLDPDTPWEYCAIKTCAHSAVNETDVPMETTECIQGQGEGYRGTSNTIWNGIPCQRWDSQYPHKHDITPENFKCKDLRENYCRNPDGAESPWCFTTDPNIRVGYCSQIPKCDVSSGQDCYRGNGKNYMGNLSKTRSGLTCSMWDKNMEDLHRHIFWEPDASKLNKNYCRNPDDDAHGPWCYTGNPLIPWDYCPISRCEGDTTPTIVNLDHPVISCAKTKQLRVVNGIPTQTTVGWMVSLKYRNKHICGGSLIKESWVLTARQCFPARNKDLKDYEAWLGIHDVHERGEEKRKQILNISQLVYGPEGSDLVLLKLARPAILDNFVSTIDLPSYGCTIPEKTTCSIYGWGYTGLINADGLLRVAHLYIMGNEKCSQHHQGKVTLNESELCAGAEKIGSGPCEGDYGGPLICEQHKMRMVLGVIVPGRGCAIPNRPGIFVRVAYYAKWIHKVILTYKL
modifications: biotinylated at the N-terminus using NHS-LC-biotin (in the competition ELISAs only)
For B2, the “branches per spheroid, MLP29 cells, 0.5 nM” value [4] was 32.3 branches, the “branches per spheroid, MLP29 cells, 2.5 nM” value [4] was 43.7 branches and the “branches per spheroid, MLP29 cells, 12.5 nM” value [4] was 36 branches. The “phospho-MET ELISA EC50, MLP29 cells” value [7] was 0.23 nM, the “phospho-MET ELISA EMAX (% HGF activity), MLP29 cells” value [7] was 100% and the “protection from staurosporine, viability EC50, MLP29 cells” value [9] was 5.35 nM. For the same binder, the “protection from staurosporine, viability EMAX, MLP29 cells” value [9] was 58.6%, the “scatter score 0-4, MLP29, 0.001 nM” value [11] was 0 score and the “scatter score 0-4, MLP29, 0.004 nM” value [11] was 1 score. The “scatter score 0-4, MLP29, 0.012 nM” value [11] was 2 score, the “scatter score 0-4, MLP29, 0.037 nM” value [11] was 3 score and the “scatter score 0-4, MLP29, 0.111 nM” value [11] was 4 score. The “scatter score 0-4, MLP29, 0.333 nM” value [11] was 4 score, the “scatter score 0-4, MLP29, 1.000 nM” value [11] was 4 score and the “scatter score 0-4, MLP29, 3.000 nM” value [11] was 4 score. For the same binder, the “scatter score 0-4, MLP29, 9.000 nM” value [11] was 4 score.
